Source: the supplement of paper PMC10567573

B1: DVL3 (parent)
chain: SDVVDWLYHNVEGFTDRREARKYA
B2: GMCL1 (parent)
chain: FCYCAGSHKRKRSSGSFCYCHPDS
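Also: lentivirally expressed fusions sorted by FACS into six bins by GFP to DsRed ratio, PSI derived from sequencing read proportions per bin multiplied by bin number.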

Variants of: B1
Experiment: protein stability index of a GFP-peptide fusion (GPS, HEK-293T) (PSI 1-6); higher = more stable
Details: c terminus: a fixed tail appended
With KDVVDWLYHNVEGFTDRREARKYA [S1K] the protein stability index was 2. TDVVDWLYHNVEGFTDRREARKYA [S1T] gave a protein stability index of 3.1. Variant IDVVDWLYHNVEGFTDRREARKYA [S1I] has a protein stability index of 2. With RDVVDWLYHNVEGFTDRREARKYA [S1R] the protein stability index was 2.52. Work on LDVVDWLYHNVEGFTDRREARKYA [S1L] yielded a protein stability index of 3.51. With NDVVDWLYHNVEGFTDRREARKYA [S1N] the protein stability index was 3.42. HDVVDWLYHNVEGFTDRREARKYA [S1H] gave a protein stability index of 3.27. FDVVDWLYHNVEGFTDRREARKYA [S1F] showed a protein stability index of 2.23. With CDVVDWLYHNVEGFTDRREARKYA [S1C] the protein stability index was 2.71. For EDVVDWLYHNVEGFTDRREARKYA [S1E], the protein stability index was 3.76. With GDVVDWLYHNVEGFTDRREARKYA [S1G] the protein stability index was 3.78. PDVVDWLYHNVEGFTDRREARKYA [S1P] gave a protein stability index of 2.15. For VDVVDWLYHNVEGFTDRREARKYA [S1V], the protein stability index was 3.5. Work on QDVVDWLYHNVEGFTDRREARKYA [S1Q] yielded a protein stability index of 2.9. DDVVDWLYHNVEGFTDRREARKYA [S1D] showed a protein stability index of 3.92. SHVVDWLYHNVEGFTDRREARKYA [D2H] showed a protein stability index of 2.91. SKVVDWLYHNVEGFTDRREARKYA [D2K] gave a protein stability index of 2.73. SYVVDWLYHNVEGFTDRREARKYA [D2Y] gave a protein stability index of 2.26. SMVVDWLYHNVEGFTDRREARKYA [D2M] gave a protein stability index of 2.09. SAVVDWLYHNVEGFTDRREARKYA [D2A] gave a protein stability index of 1.85. In the case of SWVVDWLYHNVEGFTDRREARKYA [D2W], the protein stability index is reported as 1.64. SCVVDWLYHNVEGFTDRREARKYA [D2C] showed a protein stability index of 2.16. In the case of SRVVDWLYHNVEGFTDRREARKYA [D2R], the protein stability index is reported as 2.23. SSVVDWLYHNVEGFTDRREARKYA [D2S] gave a protein stability index of 2.74. In the case of SPVVDWLYHNVEGFTDRREARKYA [D2P], the protein stability index is reported as 2.62. With SFVVDWLYHNVEGFTDRREARKYA [D2F] the protein stability index was 1.9. Work on SIVVDWLYHNVEGFTDRREARKYA [D2I] yielded a protein stability index of 2.46. Variant STVVDWLYHNVEGFTDRREARKYA [D2T] has a protein stability index of 2.9. SVVVDWLYHNVEGFTDRREARKYA [D2V] showed a protein stability index of 2.72. SNVVDWLYHNVEGFTDRREARKYA [D2N] gave a protein stability index of 3.36. For SGVVDWLYHNVEGFTDRREARKYA [D2G], the protein stability index was 2.89. SEVVDWLYHNVEGFTDRREARKYA [D2E] showed a protein stability index of 3.01. With SLVVDWLYHNVEGFTDRREARKYA [D2L] the protein stability index was 2.12. For SDPVDWLYHNVEGFTDRREARKYA [V3P], the protein stability index was 4.24. SDDVDWLYHNVEGFTDRREARKYA [V3D] showed a protein stability index of 4.59. SDIVDWLYHNVEGFTDRREARKYA [V3I] showed a protein stability index of 2.98. For SDQVDWLYHNVEGFTDRREARKYA [V3Q], the protein stability index was 4.64. SDLVDWLYHNVEGFTDRREARKYA [V3L] showed a protein stability index of 3.15. For SDCVDWLYHNVEGFTDRREARKYA [V3C], the protein stability index was 3.69. Variant SDAVDWLYHNVEGFTDRREARKYA [V3A] has a protein stability index of 3.98. SDFVDWLYHNVEGFTDRREARKYA [V3F] gave a protein stability index of 2.07. In the case of SDNVDWLYHNVEGFTDRREARKYA [V3N], the protein stability index is reported as 4.22. With SDMVDWLYHNVEGFTDRREARKYA [V3M] the protein stability index was 3.85. Variant SDEVDWLYHNVEGFTDRREARKYA [V3E] has a protein stability index of 5.17. With SDHVDWLYHNVEGFTDRREARKYA [V3H] the protein stability index was 3.39.

Variants of: B2
Experiment: as above
Details: c terminus: a fixed tail appended
For FCYCAGSHKRKRSSGSFCYEHPDS [C20E], the protein stability index was 1.88. FCYCAGSHKRKRSSGSFCYRHPDS [C20R] gave a protein stability index of 1.68. With FCYCAGSHKRKRSSGSFCYPHPDS [C20P] the protein stability index was 1.94. Variant FCYCAGSHKRKRSSGSFCYNHPDS [C20N] has a protein stability index of 1.99. Variant FCYCAGSHKRKRSSGSFCYKHPDS [C20K] has a protein stability index of 1.58. FCYCAGSHKRKRMSGSFCYCHPDS [S13M] gave a protein stability index of 2.04. Work on FCYCAGSHKRKRDSGSFCYCHPDS [S13D] yielded a protein stability index of 2.74. For FCYCAGSHKRKRQSGSFCYCHPDS [S13Q], the protein stability index was 1.7. For FCYCAGSHKRKRESGSFCYCHPDS [S13E], the protein stability index was 2.02. Work on FCYCAGSHKRKRRSGSFCYCHPDS [S13R] yielded a protein stability index of 1.85. Variant FCYCAGSHKRKRTSGSFCYCHPDS [S13T] has a protein stability index of 2.11. Work on FCYCAGSHKRKRKSGSFCYCHPDS [S13K] yielded a protein stability index of 1.96. Work on FCYCAGSHKRKRPSGSFCYCHPDS [S13P] yielded a protein stability index of 2.67. Work on FCYCAGSHKRKRSSGSFCYCMPDS [H21M] yielded a protein stability index of 3.12. FCYCAGSHKRKRSSGSFCYCYPDS [H21Y] gave a protein stability index of 2.43. Work on FCYCAGSHKRKRSSMSFCYCHPDS [G15M] yielded a protein stability index of 1.21. Variant FCYCAGSHKRKRSSVSFCYCHPDS [G15V] has a protein stability index of 2.6. FCYCAGSHKRKRSSSSFCYCHPDS [G15S] gave a protein stability index of 2.17. For FCYCAGSHKRKRSSNSFCYCHPDS [G15N], the protein stability index was 2.81. Work on FCYCAGSHKRKRSSCSFCYCHPDS [G15C] yielded a protein stability index of 1.5. Work on FCYCAGSHKRKRSSWSFCYCHPDS [G15W] yielded a protein stability index of 2.26. Variant FCYCAGSHKRKRSSTSFCYCHPDS [G15T] has a protein stability index of 1.96. FCYCAGSHKRKRSSISFCYCHPDS [G15I] gave a protein stability index of 2.41. Work on FCYCAGSHQRKRSSGSFCYCHPDS [K9Q] yielded a protein stability index of 2.01. For FCYCAGSHWRKRSSGSFCYCHPDS [K9W], the protein stability index was 2.62. Work on FCYCAGSHLRKRSSGSFCYCHPDS [K9L] yielded a protein stability index of 1.99. FCYCAGSHPRKRSSGSFCYCHPDS [K9P] showed a protein stability index of 1.52. FCYCAGSHCRKRSSGSFCYCHPDS [K9C] gave a protein stability index of 2. For FCYCAGSHVRKRSSGSFCYCHPDS [K9V], the protein stability index was 2.57. In the case of FCYCAGSHKRKRSSGSFCYCHPGS [D23G], the protein stability index is reported as 2.27. With FCYCAGSHKRKRSSGSFCYCHPQS [D23Q] the protein stability index was 2.34. FCYCAGSHKRKRSSGSFCYCHPYS [D23Y] showed a protein stability index of 2.06. For FCYCAGSHKRKRSSGSFCYCHPES [D23E], the protein stability index was 2.13. Variant FCYCAGSHKRKRSSGSFCYCHPIS [D23I] has a protein stability index of 1.83. In the case of FCYCAGSHKRKRSSGSFCYCHPSS [D23S], the protein stability index is reported as 1.94. FCYCAGSHKRKRSSGSFCYCHPHS [D23H] showed a protein stability index of 1.88. For FCYCAGSHKRKRSSGSFCYCHPFS [D23F], the protein stability index was 2.06. Variant FCYCAGSHKRKRSSGSFCYCHPMS [D23M] has a protein stability index of 2.39. FCYCAGSHKRKRSSGSFCYCHDDS [P22D] gave a protein stability index of 2.78. For FCYCAGSHKRKRSSGSFCYCHWDS [P22W], the protein stability index was 2.27. With FCYCAGSHKRKRSSGSFCYCHNDS [P22N] the protein stability index was 2.69. With FCYCAGSHKRKRSSGSFCYCHTDS [P22T] the protein stability index was 1.32. Variant FCYCAGSHKRKRSSGSFCYCHLDS [P22L] has a protein stability index of 1.63. With FCYCAGSHKRKRSSGSFCYCHCDS [P22C] the protein stability index was 2.12. FCYCAGSHKRKRSWGSFCYCHPDS [S14W] showed a protein stability index of 2.03. For FCYCAGSHKRKRSYGSFCYCHPDS [S14Y], the protein stability index was 2.07. In the case of FCYCAGSHKRKRSGGSFCYCHPDS [S14G], the protein stability index is reported as 1.89. In the case of FCYCAGSHKRKRSRGSFCYCHPDS [S14R], the protein stability index is reported as 2.02. For FCYCAGSHKRKRSEGSFCYCHPDS [S14E], the protein stability index was 1.87.
